The source of these data is patent US20210332142A1 (Genentech, published 2021).

For orientation: Kd means the free concentration of one partner at which half of the binding sites on the other are occupied at equilibrium, for simple one-to-one binding. Read a low Kd as a tighter complex. As usually defined, the EC50 (read off the curve) is the concentration giving half of the maximal effect. Read a low EC50 (read off the curve) as a more potent agent.

For test [1], the target named is T1, omalizumab.
T1 construct: Used as irrelevant coated protein; also called irrelevant Fc-containing protein; not shown: the constant regions
The test can be described thus: phage ELISA. Background: An ELISA detects its analyte on a solid surface through an enzyme-linked reagent.

The target of test [2] is T2, human Tie2ECD.flag (human, UniProt Q02763 23-748).
T2 construct: also called hTie2.flag; not shown: C-terminal Flag tag
T2 sequence (Q02763 23-748 limits assumed): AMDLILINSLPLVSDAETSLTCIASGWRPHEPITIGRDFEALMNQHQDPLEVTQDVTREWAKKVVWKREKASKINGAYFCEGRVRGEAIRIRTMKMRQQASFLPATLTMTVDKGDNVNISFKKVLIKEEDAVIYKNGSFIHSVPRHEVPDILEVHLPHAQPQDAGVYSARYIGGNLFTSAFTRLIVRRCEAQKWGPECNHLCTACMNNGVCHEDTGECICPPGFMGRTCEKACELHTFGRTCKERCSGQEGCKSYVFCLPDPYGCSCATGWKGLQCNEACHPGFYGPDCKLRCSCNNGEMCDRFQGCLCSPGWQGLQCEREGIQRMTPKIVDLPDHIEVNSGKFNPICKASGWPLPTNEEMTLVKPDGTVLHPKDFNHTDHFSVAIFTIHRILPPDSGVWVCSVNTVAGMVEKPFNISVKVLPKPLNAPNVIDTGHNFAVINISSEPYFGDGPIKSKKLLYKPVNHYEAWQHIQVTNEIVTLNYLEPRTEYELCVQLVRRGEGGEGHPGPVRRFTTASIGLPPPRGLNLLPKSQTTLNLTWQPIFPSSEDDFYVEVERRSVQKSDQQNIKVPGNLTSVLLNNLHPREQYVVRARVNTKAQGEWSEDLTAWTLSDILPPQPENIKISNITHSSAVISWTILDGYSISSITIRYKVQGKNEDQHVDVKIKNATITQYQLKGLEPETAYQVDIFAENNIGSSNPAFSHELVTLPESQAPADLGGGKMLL
Briefly: Biacore, hIgG captured, 25C. Here is the method: (§1) Monovalent affinities of selected anti-Tie2 hIgGs were determined using a Biacore T200 instrument (GE Life Sciences). Anti-humanFc was covalently immobilized on a Series S CM5 Biacore sensor chip to enable non-covalent capture of anti-Tie2 antibodies and binding of human or rat Tie2ECD.flag was monitored in real time at 25° C. using a multi-cycle kinetics experiment format. Between cycles, the surface was regenerated with 3 M MgCl₂. Monovalent affinities were determined by kinetic analysis, using Biacore Evaluation Software (GE Life Sciences) to fit a 1:1 binding model to the data.
(In general: In SPR one partner is held on a chip, and binding of the other changes the refractive index at the surface.)

For test [3], the target named is T3, rat Tie2ECD.flag (rat, UniProt A0ABK0L6J5 19-740).
T3 construct: extracellular domain; also called rTie2.flag; not shown: C-terminal Flag tag
Briefly: Biacore, hIgG captured, 25C. The protocol: as §1

Test [4] concerns the target T4, human Tie1 (human, UniProt P35590 22-759).
T4 construct: extracellular domain
T4 sequence (looked up): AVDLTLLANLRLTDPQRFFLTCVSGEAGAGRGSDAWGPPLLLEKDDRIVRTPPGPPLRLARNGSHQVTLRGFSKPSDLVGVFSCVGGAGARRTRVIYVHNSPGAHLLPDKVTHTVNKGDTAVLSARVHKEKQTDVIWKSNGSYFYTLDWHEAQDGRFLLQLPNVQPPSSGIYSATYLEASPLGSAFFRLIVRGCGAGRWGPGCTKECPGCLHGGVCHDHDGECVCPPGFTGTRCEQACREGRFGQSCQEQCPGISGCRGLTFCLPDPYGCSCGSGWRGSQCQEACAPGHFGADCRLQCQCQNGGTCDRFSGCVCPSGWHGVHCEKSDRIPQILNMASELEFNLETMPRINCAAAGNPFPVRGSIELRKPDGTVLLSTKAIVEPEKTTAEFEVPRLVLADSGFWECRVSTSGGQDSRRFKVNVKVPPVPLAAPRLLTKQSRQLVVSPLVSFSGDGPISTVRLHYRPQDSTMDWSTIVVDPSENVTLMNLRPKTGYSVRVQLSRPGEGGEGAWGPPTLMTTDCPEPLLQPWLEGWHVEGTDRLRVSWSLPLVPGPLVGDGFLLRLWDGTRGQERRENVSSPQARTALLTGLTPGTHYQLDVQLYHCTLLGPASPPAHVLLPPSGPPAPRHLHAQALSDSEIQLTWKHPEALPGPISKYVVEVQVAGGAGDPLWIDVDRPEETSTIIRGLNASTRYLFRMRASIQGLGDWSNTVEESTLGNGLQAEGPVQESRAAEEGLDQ
The test can be described thus: ELISA: human Tie1 immobilized, serial dilutions of IgG, anti-huFc-HRP. The text has this:
(§2) Plates were washed and detected with anti-huFC-conjugated HRP secondary antibody using the methods above.
The binding ELISA was also used with immobilized Tie1 protein to assess Tie1 binding.

The target in test [5] is T5, mouse Tie2 ECD5 (mouse, UniProt Q02858 23-442, limits assumed).
T5 construct: domain: ECD5 (Ig1, Ig2, EGF and Ig3 domains); also called mECD5
T5 sequence (Q02858 23-442 limits assumed): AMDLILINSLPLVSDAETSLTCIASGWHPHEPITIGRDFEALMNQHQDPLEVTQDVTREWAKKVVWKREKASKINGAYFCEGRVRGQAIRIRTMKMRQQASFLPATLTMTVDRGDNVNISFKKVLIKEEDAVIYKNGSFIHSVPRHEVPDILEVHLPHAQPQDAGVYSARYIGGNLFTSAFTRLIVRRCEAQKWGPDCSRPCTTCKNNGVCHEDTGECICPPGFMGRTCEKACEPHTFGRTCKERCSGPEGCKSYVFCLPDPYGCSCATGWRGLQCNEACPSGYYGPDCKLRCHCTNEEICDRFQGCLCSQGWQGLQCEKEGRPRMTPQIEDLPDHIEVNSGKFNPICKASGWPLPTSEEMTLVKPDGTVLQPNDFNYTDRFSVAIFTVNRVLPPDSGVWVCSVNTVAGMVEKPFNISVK
Briefly: ELISA: mouse Tie2 ECD5 construct immobilized, serial dilutions of IgG, anti-huFc-HRP.
Excerpt: as §2

Test [6] concerns the target T6, human Tie2 ECD5 (extracellular domain without the FN3 domains; Ig1, Ig2, EGF and Ig3 domains) (human, UniProt Q02763 23-442).
T6 construct: whole entry named; also called huECD5; hECD5; not shown: C-terminal carrier of the coated construct (hIgG1 Fc or Flag tag)
The test can be described thus: ELISA: human Tie2 ECD5 construct immobilized, serial dilutions of IgG, anti-huFc-HRP.
Excerpt: as §2

Test [7] addresses T7, mouse Tie2 full extracellular domain (mouse, UniProt Q02858 23-746).
T7 construct: extracellular domain; also called mFullECD
Briefly: phage ELISA. Here is the method: Clones from the fourth round were screened for Tie2 binding and specificity by ELISA. Screening ELISAs were carried out by coating the wells of a 96-well microtiter plate with Tie2 protein or irrelevant protein at 65 ul per well (1 ug/ml in coating buffer) at 4° C. overnight. In a 96-tube plate, colonies from the fourth round were grown overnight at 37° C. in 400 ul 2YT media with 50 ug/ml carbenicillin and helper phage K07. The plate was spun down at 3000 rpm for 10 min. 30 ul of the culture supernatant was added with 60 ul of ELISA buffer (PBS with 0.5% BSA and 0.05% Tween20) to the Tie2-coated plate and incubated at room temperature for 1 hr. Plates were washed with PBS—0.05% Tween20 and 100 ul/well of horseradish peroxidase (HRP)-conjugated anti-M13 antibody (1/5000 dilution in PBS plus 0.5% BSA and 0.05% Tween20) at room temperature for 30 min (Sidhu et al., supra). The wells were washed with PBS—0.05% Tween20 prior to 100 ul/well of a 1:1 ratio of 3,3′,5,5′-tetramethylbenzidine (TMB) peroxidase substrate and Peroxidase Solution B (H₂O₂) ((Kirkegaard-Perry Laboratories (Gaithersburg, Md.)) being added per well and incubated for 5 min at room temperature. The reaction was stopped by adding 100 ul 1M phosphoric Acid (H₃PO₄) per well and the OD of wells was determined using a standard ELISA plate reader at 450 nm.

T6 sequence (Q02763 23-442 limits assumed): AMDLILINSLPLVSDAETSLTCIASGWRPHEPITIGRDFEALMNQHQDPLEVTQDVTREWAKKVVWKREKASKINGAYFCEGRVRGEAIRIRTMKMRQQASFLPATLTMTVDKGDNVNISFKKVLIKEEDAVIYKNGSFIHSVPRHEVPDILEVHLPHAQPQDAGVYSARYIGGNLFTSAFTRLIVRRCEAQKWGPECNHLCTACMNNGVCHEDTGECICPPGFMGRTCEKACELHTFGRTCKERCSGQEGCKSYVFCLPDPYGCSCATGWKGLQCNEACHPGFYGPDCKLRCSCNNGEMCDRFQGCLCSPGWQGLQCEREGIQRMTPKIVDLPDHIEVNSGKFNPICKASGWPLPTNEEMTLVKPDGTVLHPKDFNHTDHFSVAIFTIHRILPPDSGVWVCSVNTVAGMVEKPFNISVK
T7 sequence (Q02858 23-746): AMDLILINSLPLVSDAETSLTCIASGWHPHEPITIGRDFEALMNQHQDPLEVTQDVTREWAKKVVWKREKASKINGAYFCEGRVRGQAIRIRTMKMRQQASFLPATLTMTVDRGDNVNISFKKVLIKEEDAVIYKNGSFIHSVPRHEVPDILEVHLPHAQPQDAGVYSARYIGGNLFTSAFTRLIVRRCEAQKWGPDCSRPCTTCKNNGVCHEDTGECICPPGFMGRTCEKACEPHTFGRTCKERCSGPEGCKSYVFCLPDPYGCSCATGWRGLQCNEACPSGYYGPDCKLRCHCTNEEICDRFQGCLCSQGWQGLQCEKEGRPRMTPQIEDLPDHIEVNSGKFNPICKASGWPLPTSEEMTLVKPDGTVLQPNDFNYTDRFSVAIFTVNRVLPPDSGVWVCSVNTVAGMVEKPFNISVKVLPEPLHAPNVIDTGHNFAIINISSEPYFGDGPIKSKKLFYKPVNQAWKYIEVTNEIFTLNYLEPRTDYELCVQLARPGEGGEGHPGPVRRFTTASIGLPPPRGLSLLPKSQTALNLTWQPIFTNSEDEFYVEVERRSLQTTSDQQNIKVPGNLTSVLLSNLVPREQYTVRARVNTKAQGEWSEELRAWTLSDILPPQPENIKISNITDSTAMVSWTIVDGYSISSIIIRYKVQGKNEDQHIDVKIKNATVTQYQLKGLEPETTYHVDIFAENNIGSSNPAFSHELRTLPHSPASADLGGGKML

B1: Tie2.12 (antibody, IgG1, V domains shown)
VH: EVQLVESGGGLVQPGGSLRLSCAASGFTFSSYWIHWVRQAPGKGLEWVAAISPNDGSTYYADSVKGRFTISADTSKNTAYLQMNSLRAEDTAVYYCARSRYYGQRLVYYVMDYWGQGTLVTVSS
VL: DIQMTQSPSSLSASVGDRVTITCRASQDVSTAVAWYQQKPGKAPKLLIYSASFLYSGVPSRFSGSGSGTDFTLTISSLQPEDFATYYCQQSYTTPPTFGQGTKVEIKR
notes: hIgG1 in later assays; also called Ab12
Turning to B1, the values for the binding result in test [1] and in test [4] were “no binding” and “no binding (tested: 200 nM)”, respectively. For the same molecule, the Kd in test [2] was 52 nM; in test [3], 116 nM. Further, the “EC50 (read off the curve)” value in test [5] and in test [6] was about 1 nM each time.

B2: Tie2.24 (antibody, IgG1, V domains shown)
VH: EVQLVESGGGLVQPGGSLRLSCAASGFTFTSSGISWVRQAPGKGLEWVATINPYGGDTYYADSVKGRFTISADTSKNTAYLQMNSLRAEDTAVYYCARFYRFLSSGMDYWGQGTLVTVSS
VL: B1 VL
notes: hIgG1 in later assays; also called Ab24
As to B2, the binding result in test [1] was “no binding”; in test [7], “binds”. In addition, the Kd in test [2] was 822 nM; in test [3], 2800 nM.
